In doi:10.1101/2024.12.26.630380:

Key:
Test in all cases: single-molecule fluorescence
[1] = target: T1, pMcsB (Geobacillus stearothermophilus (printed …, UniProt P0DMM5))
T1 sequence: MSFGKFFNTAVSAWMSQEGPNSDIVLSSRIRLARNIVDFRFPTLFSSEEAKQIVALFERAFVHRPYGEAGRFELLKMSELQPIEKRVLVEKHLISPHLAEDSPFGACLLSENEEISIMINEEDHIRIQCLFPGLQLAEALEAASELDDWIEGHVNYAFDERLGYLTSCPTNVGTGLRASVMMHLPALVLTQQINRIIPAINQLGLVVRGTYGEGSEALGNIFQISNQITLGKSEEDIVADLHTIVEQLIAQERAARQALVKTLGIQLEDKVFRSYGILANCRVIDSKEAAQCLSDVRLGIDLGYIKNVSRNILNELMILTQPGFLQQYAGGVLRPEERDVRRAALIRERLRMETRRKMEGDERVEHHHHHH

[2] = target: T2, CtsR (Geobacillus stearothermophilus (printed …, UniProt C3W947))
T2 sequence: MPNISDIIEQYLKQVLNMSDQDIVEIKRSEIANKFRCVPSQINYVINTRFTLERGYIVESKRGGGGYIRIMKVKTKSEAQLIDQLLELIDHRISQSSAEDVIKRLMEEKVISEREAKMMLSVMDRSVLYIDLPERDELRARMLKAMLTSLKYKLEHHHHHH

[3] = target: T3, pMcsB-HaloTag (Geobacillus stearothermophilus (printed …, UniProt P0DMM5 1-363))
T3 sequence: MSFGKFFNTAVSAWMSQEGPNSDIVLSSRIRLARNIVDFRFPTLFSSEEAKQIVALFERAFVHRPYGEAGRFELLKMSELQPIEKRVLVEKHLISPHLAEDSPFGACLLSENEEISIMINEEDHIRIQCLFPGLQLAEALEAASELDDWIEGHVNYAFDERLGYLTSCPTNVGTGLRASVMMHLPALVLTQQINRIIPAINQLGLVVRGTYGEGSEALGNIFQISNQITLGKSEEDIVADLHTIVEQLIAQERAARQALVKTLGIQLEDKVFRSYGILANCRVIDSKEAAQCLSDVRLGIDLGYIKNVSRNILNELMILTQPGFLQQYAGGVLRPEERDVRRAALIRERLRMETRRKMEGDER

B1: cognate Cy3 DNA probe (T7 label) (dsDNA)
DNA 1: CGATTACGGCAATTCAGGAATACCGCTAATG
DNA 2: GCTGATTAAGGTCAAATATAGTCAAAATAGAGTTCATTAGCGGTATTCCTGAATTGCCGTAATCG
DNA 3: CTCTATTTTGACTATATTTGACCTTAATCAGC
modifications: amino-C6-dT at T7 of strand 3 (S8 printed split around it)
For B1, the binding result [1] was “no binding”, the Kd [2] was ~12 nM and the binding result [3] was “no binding”.
